15 sequences from the DeepSol protein solubility set can be followed below.

The data set can be described thus: soluble on expression in E. coli; label from the status in PepcDB or PDB records.
Regarding “SKDPAFTALLTTQLQVQREIVNKHNELRKAVSPPASNMLKMEWSREVTTNAQRWANKCTLQHSDPEDRKTSTRCGENLYMSSDPTSWSSAIQSWYDEILDFVYGVGPKSPNAVVGHYTQLVWYSTYQVGCGIAYCPNQDSLKYYYVCQYCPAGNNMNRKNTPYQQGTPCAGCPDDCDKGLCTNSCQYQDLLSNCDSLKNTAGCEHELLKEKCKATCLCENKIY”, the “soluble on expression in E. coli” value is recorded as “soluble”. Consider “SKDQHLRGFFSDSTSFNILMDMLFIKGKYKSALQVLIEMKNQDVKFTKDTYVLAFAICYKLNSPESFKICTTLREEALLKGEILSRRASCFAVALALNQNEMAKAVSIFSQIMNPESIACINLNIIIHIQSNMLENLIKTLKNAAEGNLSKFVKRHVFSEEVLAKVREKVKDVPALVAKFDEIYGTLHITGQVTTDSLDAVLCHTPRDRKSHTLLLNKRMVSRRTFQPLSQSLLAE”, for which the “soluble on expression in E. coli” value is listed as “soluble”.

For the sequence “SKRVEVLLTQLPAYNRLKTPYEAELIETAKKMTAPGKGLLAADESTGSCSKRFAGIGLSNTAEHRRQYRALMLECEGFEQYISGVILHDETVYQKAKTGETFPQYLRRRGVVPGIKTDCGLEPLVEGAKGEQMTAGLDGYIKRAKKYYAMGCRFCKWRNVYKIQNGTVSEAVVRFNAETLARYAILSQLCGLVPIVEPEVMIDGTHDIETCQRVSQHVWSEVVSALHRHGVVWEGCLLKPNMVVPGAESGLKGHAEQVAEYTVKTLARVIPPALPGVTFLSGGLSEVMASEYLNAMNNCPLPRPWKLTFSYARALQSSAIKRWGGKESGVEAGRRAFMHRAKMNSLAQLGKYNRADDDKDSQSLYVAGNT”, the “soluble on expression in E. coli” value is “soluble”. Regarding “SLARKRRSTQRFSTTRKLKKERKIGTGKKEAEPLLPDLAEINAPDLMPTLVLNFDNVLASIAYDPVKGYIVRKRPGVDAFLSTLANFYELVLWSDHPFPFIEDLLRARLEWPISFTLYQENMDRRGSSRYRKIVQKGPFFKATRGVACSSGLSETAETLEEIFDNLERLGRRMDRVLYIDIDGSVLPSTQMRNFIKVTPFHGEAQEMLEDHALPELTDLLIGAAVSAGDVREMLLRYGGGADGNVGKR”, the “soluble on expression in E. coli” value is “soluble”. On to “SLCQEKHTHTHSQKHLKAVCNRLSRTIGHLSAIKRMVENDKDCSEILIQLAAVKAEVNNTAKVVLKEHLAHCMVHAIEENDIQSIEELNKAIDMFMK”, for which the “soluble on expression in E. coli” value is reported as “soluble”. As for “SLDEAEMKAVNIHDGIDGTLMILHHRLKAAIRRPKIEIVKDYAKLPLIECYPGKLNQVFMNILANAIDALEEGMGNEEIPPPTGQITIRTEVLDNQWVVIRIADNGPGMKEEVIRRIYDPFFTTKDVGKGTGLGMAISYQIVVDKHGGMLKCRSQPGEGTEFWIQIPVNCALADAAEEG”, the “soluble on expression in E. coli” value is on record as “soluble”. “SLIKNGELKPGDKLDSVQALAESFQVSRSAVREALSALKAMGLVEMKQGEGTYLKEFELNQISQPLSAALLMKKEDVKQLLEVRKLLEIGVASLAAEKRTEADLERIQDALKEMGSIEADGELGEKADFAFHLALADASQNELLKHLMNHVSSLLLETMRETRKIWLFSKKTSVQRLYEEHERIYNAVAAGNGAQAEAAMLAHLTNVEDVLSGYFEENVQ”: the “soluble on expression in E. coli” value is “soluble”. In the case of “SLIKQKLKISQNLNSIQIQTIKILSLNQKELTKLILEESENNECLEINSNKIFFETLKTYRFKKVFYKEDDMIKNQHDIALEKTQTNTSLKEHLLLQLRIQRINEDEIKIGEILINNLNSKGFHIINPYDLFKKEEKEKVKKIIELIQKFDPIGICVPNIIESLILQAKHHKLETNIIKILEKAELLEKTQKKLKEELKIRSKEFNTALEIIRQKLNPNPTLEFKDPNDTNFYVDPDILIINHNNKFKIKIKEVNIFKKELKRTSENPQKQKKAKWLIESLRYRDEILAKIGIAIYTLQKEFLRRGFKSLRPMNLSILSEKISVSKSTISRAIKNKYLKCEWGTILIKELFSSVGGAKTNEFSKLSIKITVKKLLEANKKMSDKEISVILKSKGISISRRTVNKYRNELKSEKGRTYYGT”, the “soluble on expression in E. coli” value is given as “not soluble”. With “SLITVRIGGNEYPLDEVLEDPGRYARHLERAKTIQGFAECGCAEGRPRPKLVIRRHRDIFLLARWPEQAFRHAEGCPFHRKTQTTPGAADSLDAFRMRDGRHDIRLDASLSVSTHTPAKTVQRTPKGQFTKPQRRSAGLLALLEFAWEQAGLNVWPGTGARSWNGCWSQLTAELDDCRINGKDADGLLHVMQRWDPARKSEILAEFEAWQARLSPTAAGNPRGILIGEIESHAATQYGGKVVLRQSTQRFFMSSGLYERLQASFGTALAGIGRAEQRCVAVLLVEKSRSNYLTVVDIGAMLANRQFLPCDSSHEVAMADHLVALRRAFRKPLRHIGRAEVHPDFVLTDVQPETVIEVLGMAGNPAYDARTASKRQHYQTAGVPFLEWDAVATSISSVRVPPAGTRAADAR”, the “soluble on expression in E. coli” value is reported as “soluble”. Turning to “SLKEVLDEKFPSNNKLEVGLGRDISGDPITVPLNEMPHLLVAGSTGSGKSVCINGIITSILLNAKPHEVKLMLIDPKMVELNVYNGIPHLLIPVVTNPHKAAQALEKIVAEMERRYDLFQHSSTRNIKGYNELIRKQNQELDEKQPELPYIVVIVDELADLMMVAGKEVENAIQRITQMARAAGIHLIVATQRPSV”, the “soluble on expression in E. coli” value is listed as “not soluble”.

“SLKPSRPVETAYLQGQPGTPFPVIRGIGWSEDQGRRPDMEDGMVAISNLAGVANAWLLGIYDGHGGRQMVEMLLQKIHGNVLQHLRSRAIERWQRYRQRAMSRLQDIRRRLDELHFQQQLACRDVRVLMPPTQRLVELLRLGRICEWVLQCEEPSQEGRTETEKSSASKAPTPPSFLTICTEEDVHRALDEAFVQTDVEILQRLTHPSDHKAGCERDARRVESLGGWVFGERVNGMLAIGRAFGDWSLKLPPGKANPPYSPTSGAFDRLLNIFGTSPSHAAEQAAAERKEYVVSNAPDVRSVSLTPERPAQVPGGIRRNSPSSRASESQTAMSGQETGAGRVPGLLVLGCDGLFDVCSDQVVAHLALEFLRQLVAVHPDMSPCEAAKATARMLIEEAIGVRGSTDNVSVMVVLFHSFGFSGRDGVTPSPPTWYAAAAAKFAWLAEGVSRNVFGLPTASPIALPREPEDKTVD”: the “soluble on expression in E. coli” value was “not soluble”. Under “SLLPNILLTGTPGVGKTTLGKELASKSGLKYINVGDLAREEQLYDGYDEEYDCPILDEDRVVDELDNQMREGGVIVDYHGCDFFPERWFHIVFVLRTDTNVLYERLETRGYNEKKLTDNIQCEIFQVLYEEATASYKEEIVHQLPSNKPEELENNVDQILKWIEQWIKDHNS” stands “soluble”; under “SLNAEEKKGLQRAIEEITEIAKGFGLDFYPMRYEICPAEIIYTFGAYGMPTRFSHWSFGKQFHKMKLHYDLGLSKIYELVINSDPCYAFLLDSNSLIQNKLIVAHVLAHCDFFKNNCRFQNTKRDMVESMAATAERIKHYEQVHGIKEVESFLDAILSIQEHIDPSLVRPKLQWSVDDEEEEIEEAATPYDDLWSLDEKKPKKQVKKSKKPFPPRPEKDILLFIEEHSRELEPWQRDILTMMREEMLYFWPQLETKIMNEGWASYWHQRIIRELDLTSDEAIEFAKLNAGVVQPSKTGINPYYLGLKIFEDIEKRYNNPTEEMKKMGVQPDSGREKMFEVREIESDISFIRNYLTKELVMREDLYLFAAAGRDYKIIDKQWKSVRDQLVSMRVNGGFPYLTVNDGDYMKNNELYIKHWYEGIELDLKYLEKVLPYLFQLWGRSVHIESVLEDKEVMFSYDGKGVHRRYL”, “soluble”; under “SLPERGKTETADGEVFLQWLRQSVTDGMLSVNESDSVLHILARFVFVASPDVFYKYTSSAGDAVQDKKQLQKSFEALSVHHSRNGKGLYHYHKYDAPDKSGGFIKVSGYMIETNLIFRKGSCPSDSIWLSPRS”, “soluble”. In the case of “SLQKFKWSNIYCKEADCVRILLVADPQILGKTFDTHFYAGLANYDSDRYLAWYYEQAVEHVQPDVIIFLGDLMDEGTDSTEMHFEEYYTRFGAIFPTHPTARSIYIPGDNDIGGEGRQPLNPIAKRRFRQYFSERPAWVINDNLTIYNINRITLEMTLNDPRMVDSTGSDVSDRYLRIFVSHMPVLDVPSSFTYTAIHNLKPNVIFSAHLHVSQFARIHRSRLKTVQYKPLSQDKRTAYKVHSFDLSYHQDTQELLEIIVPTCSYRMSVPDIGYGYAAIDGTTLKYTVLWTTRRFYQLISYV”, the “soluble on expression in E. coli” value is recorded as “not soluble”.
